The record followed here is publication PMC3615468 (Nature Communications, 2013).

This data set concerns the molecule itself. Kind of data set: SEC. On the technique in general: SEC sorts molecules by how far they enter the pores of the column.

B1: Recombinant CIDE-N domain of mouse Fsp27 (a.a. 39-119) (domain or fragment, UniProt P56198 39-119, looked up)
chain: TPRARPCRVSTADRKVRKGIMAHSLEDLLNKVQDILKLKDKPFSLVLEEDGTIVETEEYFQALAKDTMFMVLLKGQKWKPP
In general, stoichiometry N refers to the number of molecules, sites or subunits per partner or assembly. With B1, the “stoichiometry N” value was 2.
